These results are taken from US20230312745A1.

In test [1] the target is Ly6C on mouse blood mononuclear cells (mouse) (UniProt P0CW02). The test can be described thus: flow cytometry contour plot of live mononuclear-gated blood cells 1 h after injection into DSS treated mice; upper left quadrant 9.7; Mock panel 14.6 and 0.30. On the technique in general: Flow cytometry measures light scatter and fluorescence of single cells or particles in a stream.

Test [2] deals with anti-CD34 antibody (clone mec14.7) RIg, self-assembled on ASSET LNPs (TsiLNPs). The test can be described thus: RIg taken up by ASSET LNPs, acrylamide gel against free RIg dilutions / western blot after 1 MDa dialysis.
Test [3] concerns the target Rat IgG2a (RIg), clone FIB504 (BioXcell). The test can be described thus: ELISA on coated RIg, ASSET LNPs after dialysis, pre-incubated with 0.2% Triton X-100.
Test [4] shares this target. The test can be described thus: ELISA, plate coated with RIg, serial dilutions of ASSET, anti-His detection.
Test [5] has as its target LFA-1 on the mouse T cell lymphoma cell line TK1 (mouse) (UniProt P24063). The test can be described thus: flow cytometry, control: secondary scFv on TK1 cells without RIg; left gate 97.9; unstain 1.87; target taken as the LFA-1 carried by TK1 cells.

Sequence of UniProt P0CW02 (P0CW02 27-109): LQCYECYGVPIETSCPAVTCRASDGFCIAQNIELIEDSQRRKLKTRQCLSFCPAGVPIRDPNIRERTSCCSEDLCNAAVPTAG

On to “isotype control RIg (BioXcell), self-assembled on ASSET LNPs (TsiLNPs) (antibody)”, for which the number in the upper right quadrant (Ly6C high, siCy5 high) in test [1] worked out at 0.53.

B1: ASSET (Anchored Secondary scFv Enabling Targeting) (scFv, part only; not given: mCherry fusion partner, part only)
scFv, part: CDQSSSEVQLLQSGPELVKPGASVKIPCKASGYTFTDYNMDWVKQSHEKSLEWIGYINPYSGDTIYNHKFKDKATLTVYKSSNIAYMELRSLTSEDTAVYYCARGGYDYGDHWGQGTTLTVSSGSAGGGGSGGGGSGGGGSDIKMTQSPSSMYASLGERVTITCKASQDINSYLSWFQQKPGKSPKTLIYRANRLVDGVPSRFSGSGSGQDYSLTISSLEYEDMGIYYCLQDDEFPRTFGGGTKLEIKHHHHHH
modifications: N-terminal cysteine of the CDQSSS NlpA motif is lipidated (bacterial lipidation)
In test [2], B1 returned an IgG incorporation of 98.3%. For the same molecule, the functionality maintained after incorporation into LNPs in test [3] is 95.8%. The Kd in test [4] was found to be 10 nM.

B2: Secondary scFv (scFv of clone RG7/1.30, without lipidation motif) (scFv)
scFv: HHHHHHEVQLLQSGPELVKPGASVKIPCKASGYTFTDYNMDWVKQSHEKSLEWIGYINPYSGDTIYNHKFKDKATLTVYKSSNIAYMELRSLTSEDTAVYYCARGGYDYGDHWGQGTTLTVSSGSAGGGGSGGGGSGGGGSDIKMTQSPSSMYASLGERVTITCKASQDINSYLSWFQQKPGKSPKTLIYRANRLVDGVPSRFSGSGSGQDYSLTISSLEYEDMGIYYCLQDDEFPRTFGGGTKLEIK
With B2, in test [5], the number in the right (positive) gate of the histogram worked out at 2.06.

What is called Kd is a measure of binding affinity in units of concentration. Lower therefore signals higher affinity.
